Where “and” joins values, the source holds several entries; their conditions need not be identical. Equal entries are not always repeated.

For assay [1], the target named is human erythrocyte spectrin (human, UniProt P02549;P11277). The assay is described as follows: co-sedimentation.
Assay [2] deals with chicken skeletal muscle actin (chicken, UniProt P68139 1-377). The assay is described as follows: co-sedimentation.

Sequence of human erythrocyte spectrin (P02549 whole entry, chain 1 of 2): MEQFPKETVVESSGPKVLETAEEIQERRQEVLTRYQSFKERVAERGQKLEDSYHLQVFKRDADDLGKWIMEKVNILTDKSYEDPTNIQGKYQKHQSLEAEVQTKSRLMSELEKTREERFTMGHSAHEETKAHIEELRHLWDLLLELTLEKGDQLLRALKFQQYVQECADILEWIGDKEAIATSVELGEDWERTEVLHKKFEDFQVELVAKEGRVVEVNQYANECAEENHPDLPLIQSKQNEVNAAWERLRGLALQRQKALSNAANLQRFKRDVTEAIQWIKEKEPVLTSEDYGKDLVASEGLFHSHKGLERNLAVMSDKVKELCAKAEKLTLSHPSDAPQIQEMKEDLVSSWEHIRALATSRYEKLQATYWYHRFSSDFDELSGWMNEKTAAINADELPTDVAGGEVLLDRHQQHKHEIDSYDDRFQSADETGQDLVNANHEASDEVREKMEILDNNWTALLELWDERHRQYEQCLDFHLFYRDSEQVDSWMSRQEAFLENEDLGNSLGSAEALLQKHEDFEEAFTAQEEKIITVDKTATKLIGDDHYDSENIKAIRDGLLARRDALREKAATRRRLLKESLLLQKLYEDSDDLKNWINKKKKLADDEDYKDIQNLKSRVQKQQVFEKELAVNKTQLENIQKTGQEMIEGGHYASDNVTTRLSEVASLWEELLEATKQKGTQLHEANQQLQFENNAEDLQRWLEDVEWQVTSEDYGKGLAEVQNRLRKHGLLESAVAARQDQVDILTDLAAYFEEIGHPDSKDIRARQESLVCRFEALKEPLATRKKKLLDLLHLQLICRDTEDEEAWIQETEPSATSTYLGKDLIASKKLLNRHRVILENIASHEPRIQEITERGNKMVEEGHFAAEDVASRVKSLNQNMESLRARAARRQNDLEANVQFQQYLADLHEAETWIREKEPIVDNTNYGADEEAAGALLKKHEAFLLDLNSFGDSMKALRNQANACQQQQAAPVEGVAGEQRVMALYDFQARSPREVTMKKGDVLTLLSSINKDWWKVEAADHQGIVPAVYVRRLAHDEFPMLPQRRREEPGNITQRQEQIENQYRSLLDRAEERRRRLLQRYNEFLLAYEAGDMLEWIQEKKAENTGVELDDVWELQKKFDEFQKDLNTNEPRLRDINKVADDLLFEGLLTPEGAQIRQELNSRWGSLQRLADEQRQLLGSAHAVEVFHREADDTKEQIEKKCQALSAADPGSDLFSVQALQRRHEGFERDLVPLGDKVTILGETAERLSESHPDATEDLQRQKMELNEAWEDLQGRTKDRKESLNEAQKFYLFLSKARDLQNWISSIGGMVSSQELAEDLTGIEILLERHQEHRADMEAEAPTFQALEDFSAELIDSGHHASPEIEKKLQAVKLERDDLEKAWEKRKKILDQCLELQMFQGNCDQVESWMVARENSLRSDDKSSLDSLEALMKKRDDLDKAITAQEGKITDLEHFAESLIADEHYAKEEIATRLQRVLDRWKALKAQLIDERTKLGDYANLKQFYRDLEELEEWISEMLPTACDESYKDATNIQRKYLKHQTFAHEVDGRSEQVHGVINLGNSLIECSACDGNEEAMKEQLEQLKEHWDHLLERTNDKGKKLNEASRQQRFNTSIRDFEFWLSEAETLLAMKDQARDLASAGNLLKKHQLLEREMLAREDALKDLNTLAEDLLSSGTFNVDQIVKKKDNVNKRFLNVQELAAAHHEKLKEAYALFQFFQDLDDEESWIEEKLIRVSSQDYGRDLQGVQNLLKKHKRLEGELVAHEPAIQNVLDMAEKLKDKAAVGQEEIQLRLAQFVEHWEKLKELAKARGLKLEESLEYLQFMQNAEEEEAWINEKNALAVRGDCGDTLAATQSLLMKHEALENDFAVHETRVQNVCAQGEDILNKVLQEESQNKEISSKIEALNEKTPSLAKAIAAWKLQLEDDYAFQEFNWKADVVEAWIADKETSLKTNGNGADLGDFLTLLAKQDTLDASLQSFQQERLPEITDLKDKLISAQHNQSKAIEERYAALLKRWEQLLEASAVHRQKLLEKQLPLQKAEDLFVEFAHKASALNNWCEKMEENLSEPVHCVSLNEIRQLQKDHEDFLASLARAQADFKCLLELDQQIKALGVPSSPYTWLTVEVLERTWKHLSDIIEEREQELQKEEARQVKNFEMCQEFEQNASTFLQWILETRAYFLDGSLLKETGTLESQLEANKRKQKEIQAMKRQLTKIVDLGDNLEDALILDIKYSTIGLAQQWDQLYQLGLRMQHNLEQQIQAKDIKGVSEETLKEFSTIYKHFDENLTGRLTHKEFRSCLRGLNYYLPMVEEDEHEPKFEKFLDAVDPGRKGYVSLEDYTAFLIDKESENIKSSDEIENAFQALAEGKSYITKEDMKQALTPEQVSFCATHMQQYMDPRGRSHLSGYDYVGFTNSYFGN
Sequence of human erythrocyte spectrin (P11277 whole entry, chain 2 of 2): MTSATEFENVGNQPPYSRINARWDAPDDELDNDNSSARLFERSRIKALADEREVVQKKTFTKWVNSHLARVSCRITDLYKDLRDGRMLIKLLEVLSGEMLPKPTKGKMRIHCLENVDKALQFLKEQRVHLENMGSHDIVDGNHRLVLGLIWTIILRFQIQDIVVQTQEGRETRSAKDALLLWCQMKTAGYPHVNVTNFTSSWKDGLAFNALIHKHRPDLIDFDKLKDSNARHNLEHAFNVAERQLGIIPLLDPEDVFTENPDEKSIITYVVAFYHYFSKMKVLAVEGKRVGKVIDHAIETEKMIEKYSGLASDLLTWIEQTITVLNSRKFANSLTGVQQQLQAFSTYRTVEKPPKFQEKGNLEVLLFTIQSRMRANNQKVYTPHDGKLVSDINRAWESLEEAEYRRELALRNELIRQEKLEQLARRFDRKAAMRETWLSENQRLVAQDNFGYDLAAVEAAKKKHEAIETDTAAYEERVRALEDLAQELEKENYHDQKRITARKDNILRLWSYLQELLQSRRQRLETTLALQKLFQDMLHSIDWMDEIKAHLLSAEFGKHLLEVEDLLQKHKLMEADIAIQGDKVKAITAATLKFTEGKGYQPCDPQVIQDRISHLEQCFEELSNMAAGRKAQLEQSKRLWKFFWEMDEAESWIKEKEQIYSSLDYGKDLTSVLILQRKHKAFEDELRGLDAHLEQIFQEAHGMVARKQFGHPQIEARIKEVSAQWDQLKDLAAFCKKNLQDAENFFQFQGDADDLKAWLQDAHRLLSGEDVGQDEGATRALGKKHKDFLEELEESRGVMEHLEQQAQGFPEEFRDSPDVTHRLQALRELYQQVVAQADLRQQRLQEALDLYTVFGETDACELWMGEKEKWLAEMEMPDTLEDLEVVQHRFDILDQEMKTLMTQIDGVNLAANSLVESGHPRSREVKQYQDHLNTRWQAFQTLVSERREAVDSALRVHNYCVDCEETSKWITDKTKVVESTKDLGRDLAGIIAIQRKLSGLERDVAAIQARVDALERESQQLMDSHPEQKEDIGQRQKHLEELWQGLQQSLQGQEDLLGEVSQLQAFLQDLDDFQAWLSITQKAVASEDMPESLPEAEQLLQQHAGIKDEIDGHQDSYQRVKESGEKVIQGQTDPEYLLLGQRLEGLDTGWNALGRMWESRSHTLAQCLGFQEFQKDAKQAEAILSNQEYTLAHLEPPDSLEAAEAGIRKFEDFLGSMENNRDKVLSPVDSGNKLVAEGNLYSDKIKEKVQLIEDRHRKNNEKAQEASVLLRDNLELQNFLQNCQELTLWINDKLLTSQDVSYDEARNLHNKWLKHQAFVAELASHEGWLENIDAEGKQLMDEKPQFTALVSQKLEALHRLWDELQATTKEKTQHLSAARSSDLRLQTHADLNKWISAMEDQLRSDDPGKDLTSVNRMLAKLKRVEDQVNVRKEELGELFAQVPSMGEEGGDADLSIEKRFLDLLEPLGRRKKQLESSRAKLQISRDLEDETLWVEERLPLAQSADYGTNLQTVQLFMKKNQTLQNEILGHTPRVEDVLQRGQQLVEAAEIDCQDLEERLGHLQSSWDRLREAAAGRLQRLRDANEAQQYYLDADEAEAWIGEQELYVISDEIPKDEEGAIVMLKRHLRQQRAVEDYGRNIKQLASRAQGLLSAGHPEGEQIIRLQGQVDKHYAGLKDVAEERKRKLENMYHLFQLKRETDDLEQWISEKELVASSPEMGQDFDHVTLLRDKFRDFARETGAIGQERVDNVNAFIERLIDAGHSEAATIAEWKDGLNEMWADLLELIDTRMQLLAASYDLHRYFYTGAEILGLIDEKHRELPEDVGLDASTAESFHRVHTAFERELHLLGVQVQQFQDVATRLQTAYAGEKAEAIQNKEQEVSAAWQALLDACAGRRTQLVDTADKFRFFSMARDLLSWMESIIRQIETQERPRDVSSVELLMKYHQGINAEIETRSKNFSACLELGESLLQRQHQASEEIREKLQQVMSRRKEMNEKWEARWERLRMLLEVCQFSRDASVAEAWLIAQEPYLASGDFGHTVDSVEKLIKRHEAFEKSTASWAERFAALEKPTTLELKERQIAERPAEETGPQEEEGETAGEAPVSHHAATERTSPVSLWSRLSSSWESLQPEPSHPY

B1: adducin-actin complex (complex)
chain 1: MNGDSRAAVVTSPPPTTAPHKERYFDRVDENNPEYLRERNMAPDLRQDFNMMEQKKRVSMILQSPAFCEELESMIQEQFKKGKNPTGLLALQQIADFMTTNVPNVYPAAPQGGMAALNMSLGMVTPVNDLRGSDSIAYDKGEKLLRCKLAAFYRLADLFGWSQLIYNHITTRVNSEQEHFLIVPFGLLYSEVTASSLVKINLQGDIVDRGSTNLGVNQAGFTLHSAIYAARPDVKCVVHIHTPAGAAVSAMKCGLLPISPEALSLGEVAYHDYHGILVDEEEKVLIQKNLGPKSKVLILRNHGLVSVGESVEEAFYYIHNLVVACEIQVRTLASAGGPDNLVLLNPEKYKAKSRSPGSPVGEGTGSPPKWQIGEQEFEALMRMLDNLGYRTGYPYRYPALREKSKKYSDVEVPASVTGYSFASDGDSGTCSPLRHSFQKQQREKTRWLNSGRGDEASEEGQNGSSPKSKTKWTKEDGHRTSTSAVPNLFVPLNTNPKEVQEMRNKIREQNLQDIKTAGPQSQVLCGVVMDRSLVQGELVTASKAIIEKEYQPHVIVSTTGPNPFTTLTDRELEEYRREVERKQKGSEENLDEAREQKEKSPPDQPAVPHPPPSTPIKLEEDLVPEPTTGDDSDAATFKPTLPDLSPDEPSEALGFPMLEKEEEAHRPPSPTEAPTEASPEPAPDPAPVAEEAAPSAVEEGAAADPGSDGSPGKSPSKKKKKFRTPSFLKKSKKKSDS
chain 2: MSEETVPEAASPPPPQGQPYFDRFSEDDPEYMRLRNRAADLRQDFNLMEQKKRVTMILQSPSFREELEGLIQEQMKKGNNSSNIWALRQIADFMASTSHAVFPTSSMNVSMMTPINDLHTADSLNLAKGERLMRCKISSVYRLLDLYGWAQLSDTYVTLRVSKEQDHFLISPKGVSCSEVTASSLIKVNILGEVVEKGSSCFPVDTTGFCLHSAIYAARPDVRCIIHLHTPATAAVSAMKWGLLPVSHNALLVGDMAYYDFNGEMEQEADRINLQKCLGPTCKILVLRNHGVVALGDTVEEAFYKIFHLQAACEIQVSALSSAGGVENLILLEQEKHRPHEVGSVQWAGSTFGPMQKSRLGEHEFEALMRMLDNLGYRTGYTYRHPFVQEKTKHKSEVEIPATVTAFVFEEDGAPVPALRQHAQKQQKEKTRWLNTPNTYLRVNVADEVQRSMGSPRPKTTWMKADEVEKSSSGMPIRIENPNQFVPLYTDPQEVLEMRNKIREQNRQDVKSAGPQSQLLASVIAEKSRSPSTESQLMSKGDEDTKDDSEETVPNPFSQLTDQELEEYKKEVERKKLELDGEKETAPEEPGSPAKSAPASPVQSPAKEAETKSPLVSPSKSLEEGTKKTETSKAATTEPETTQPEGVVVNGREEEQTAEEILSKGLSQMTTSADTDVDTSKDKTESVTSGPMSPEGSPSKSPSKKKKKFRTPSFLKKSKKKEKVES
chain 3: […]
In assay [1], B1 registered a dissociation constant (Kd) of 104 nM.

B2: human erythrocyte adducin (complex)
chain 1: B1 chain 1
chain 2: B1 chain 2
B2: in assay [2], the equilibrium dissociation constant (Kd) was 283 nM; the “stoichiometry N” value is ~0.143 M/M (adducin to actin) and 0.16 M/M (adducin to actin).

A word on the Kd: it is the free concentration of one partner at which half of the binding sites on the other are occupied at equilibrium, for simple one-to-one binding. Read a low Kd as higher affinity. Broadly, the stoichiometry N is a count of units in the complex or per binding partner.
